Experimental data: PMC7398576

Columns and labels:
p53 wild type = p53 wild type (UniProt P04637 1-393); experiment: pull-down
FLAG-p53 = FLAG-p53 (UniProt P04637 1-393); experiment: pull-down
Chain of FLAG-p53 (P04637 whole entry): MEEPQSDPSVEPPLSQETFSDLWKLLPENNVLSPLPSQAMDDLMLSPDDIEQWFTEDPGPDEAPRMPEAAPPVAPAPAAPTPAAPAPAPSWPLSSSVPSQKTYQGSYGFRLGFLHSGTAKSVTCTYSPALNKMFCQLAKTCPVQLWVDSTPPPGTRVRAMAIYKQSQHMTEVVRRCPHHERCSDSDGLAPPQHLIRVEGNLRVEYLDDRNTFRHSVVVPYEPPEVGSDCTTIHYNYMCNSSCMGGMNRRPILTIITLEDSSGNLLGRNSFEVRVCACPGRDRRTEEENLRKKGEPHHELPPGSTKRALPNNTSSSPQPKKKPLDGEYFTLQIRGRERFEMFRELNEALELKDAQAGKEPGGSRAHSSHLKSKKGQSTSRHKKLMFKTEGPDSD

Chain of p53 wild type (P04637 whole entry): as above

B1: biotinylated p53-site oligonucleotide (dsDNA)
DNA 1: TCGAGAGGCATGTCTAGGCATGTCTC
DNA 2: GAGACATGCCTAGACATGCCTCTCGA
binding result (p53 wild type): binds | binding result (FLAG-p53): binds
